Data on 2 molecules can be found in patent publication US20200166512A1 (CENTRE NATIONAL DE LA RECHERCHE SCIENTIFIQUE, published 2020).

For this test, the target named is T1, antigenic peptide REEHIEGGHSNTDRPSR (human immunogenic peptide, residues 365-381 of IL4I1) coupled to BSA (human, also: coupled through Ahx spacer and Cys to BSA carrier, end not given here).
T1 peptide: REEHIEGGHSNTDRPSR
Nature of the test: ELISA screen against the antigenic peptide coupled to BSA. Background: In an ELISA, binding on a coated surface is turned into a signal by an enzyme label.

Where no end group is shown, it is not given here.

B1: anti-IL4I1 antibody D-5 IgG/λ (rabbit monoclonal, clone D-5, hybridoma CNCM I-5355) (antibody, V domains shown)
VH: QQQLVESGGDLVKPEGSLTLTCTASGFSLSAGYFICWIRQAPGKGLEWIGSVFSGSSGTTYYASWAKGRFTISKTSSTTVTLQMTSLTAADTAIYFCARGGVLGGRVAYDNSFDHWGPGTLVTVSS
VL: ELVLTQSPSVSAALGASAKLTCTLSSAHSTYTIEWYQQQPGESPRYLMQLKSDGSYTKGTGVPDRFSGSSSGADRYLIIFSVQADDEADYYCGANYSSGYVFGGGTQLTVT
notes: Rabbit IgG/lambda from a hybridoma; It was used as hybridoma supernatant (clone D) or as purified IgG (subclone D-5); also called IgG D-5; AbD-5
Take B1: the binding result was “binds”.

B2: anti-IL4I1 antibody A-3 IgG/λ (rabbit monoclonal, clone A-3) (antibody, V domains shown)
VH: QSLEESGGDLVKPEGSLTLTCTASGFSLSAGYFMCWVRQAPGKGLEWIGSIFSGSSGSTYYASWAKGRFTISKTSSTTVTLQMTSLTAADTAIYFCARGGVVDGRVAYDNSFDHWGPGTLVTVSS
VL: ELVLTQSPSVSAALGASAKLTCTLSSAHSTYTIDWYQQQPGESPRYLMQLKSDGTYTKGTGVPDRFSGSSSGADRYLIIPSVQADDEAGYYCGANYSGGYVFGGGTQLTVTR
notes: Rabbit IgG/lambda from a hybridoma; It was used as hybridoma supernatant (clone A) or as purified IgG (subclone A-3); also called IgG A-3; AbA-3
B2: the binding result is reported as “binds”.
